In US20140018302A1 (published 2014):

Molecular target: recombinant HDM2 17-125 (UniProt Q00987 17-125)
Assay: FP competition with FITC-SAH-p53-8; FIG. 2B; axis prints HDMX, legend says HDM2

B1: SAH-p53-8 (peptide)
peptide: QSQQTFXNLWRLLXQN
modifications: not fully specified; amino acids at positions S20 and P27 (p53 numbering) replaced with synthetic olefinic residues joined by an i, i+7 hydrocarbon staple; acetyl-capped N-terminus in the competition FP assay
  IC50: 216 nM
